{"source": "paper PMC7594496", "about": "“Combinatorial multivalent interactions drive cooperative assembly of the COPII coat” (The Journal of Cell Biology, 2020)", "target": "T1, Sec23–Sec24 complex (WT) (yeast (S. cerevisiae), UniProt P15303 1-768; P40482 1-926)", "T1 construct": "Sec23, COPII inner coat subunit, yeast; Co-expressed and co-purified complex; also called Sec23 and His-Sec24; inner coat; source: Sf9 cells (pFastbac), purified (HisTrap HP, HiTrap Q HP)", "T1 sequence (P15303 whole entry, chain 1 of 2)": "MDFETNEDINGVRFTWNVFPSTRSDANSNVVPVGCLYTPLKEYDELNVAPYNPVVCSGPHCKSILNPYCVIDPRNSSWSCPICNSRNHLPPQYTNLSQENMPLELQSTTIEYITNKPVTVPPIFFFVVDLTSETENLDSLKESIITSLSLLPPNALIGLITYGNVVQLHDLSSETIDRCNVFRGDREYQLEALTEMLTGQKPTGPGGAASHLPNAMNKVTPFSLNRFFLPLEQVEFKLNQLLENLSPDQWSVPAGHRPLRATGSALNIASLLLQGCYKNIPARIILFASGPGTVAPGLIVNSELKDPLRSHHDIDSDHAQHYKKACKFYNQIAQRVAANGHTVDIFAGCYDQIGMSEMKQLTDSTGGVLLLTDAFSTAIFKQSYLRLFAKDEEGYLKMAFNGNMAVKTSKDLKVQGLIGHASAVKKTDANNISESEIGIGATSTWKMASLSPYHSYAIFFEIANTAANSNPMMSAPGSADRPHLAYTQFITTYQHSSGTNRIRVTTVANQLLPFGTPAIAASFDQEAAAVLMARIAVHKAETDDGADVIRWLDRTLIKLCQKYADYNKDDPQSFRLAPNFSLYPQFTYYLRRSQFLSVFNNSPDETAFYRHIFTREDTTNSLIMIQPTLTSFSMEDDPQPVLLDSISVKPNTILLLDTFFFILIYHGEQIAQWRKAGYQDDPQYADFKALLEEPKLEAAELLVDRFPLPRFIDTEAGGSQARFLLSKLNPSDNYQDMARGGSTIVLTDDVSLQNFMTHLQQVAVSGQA", "T1 sequence (P40482 whole entry, chain 2 of 2)": "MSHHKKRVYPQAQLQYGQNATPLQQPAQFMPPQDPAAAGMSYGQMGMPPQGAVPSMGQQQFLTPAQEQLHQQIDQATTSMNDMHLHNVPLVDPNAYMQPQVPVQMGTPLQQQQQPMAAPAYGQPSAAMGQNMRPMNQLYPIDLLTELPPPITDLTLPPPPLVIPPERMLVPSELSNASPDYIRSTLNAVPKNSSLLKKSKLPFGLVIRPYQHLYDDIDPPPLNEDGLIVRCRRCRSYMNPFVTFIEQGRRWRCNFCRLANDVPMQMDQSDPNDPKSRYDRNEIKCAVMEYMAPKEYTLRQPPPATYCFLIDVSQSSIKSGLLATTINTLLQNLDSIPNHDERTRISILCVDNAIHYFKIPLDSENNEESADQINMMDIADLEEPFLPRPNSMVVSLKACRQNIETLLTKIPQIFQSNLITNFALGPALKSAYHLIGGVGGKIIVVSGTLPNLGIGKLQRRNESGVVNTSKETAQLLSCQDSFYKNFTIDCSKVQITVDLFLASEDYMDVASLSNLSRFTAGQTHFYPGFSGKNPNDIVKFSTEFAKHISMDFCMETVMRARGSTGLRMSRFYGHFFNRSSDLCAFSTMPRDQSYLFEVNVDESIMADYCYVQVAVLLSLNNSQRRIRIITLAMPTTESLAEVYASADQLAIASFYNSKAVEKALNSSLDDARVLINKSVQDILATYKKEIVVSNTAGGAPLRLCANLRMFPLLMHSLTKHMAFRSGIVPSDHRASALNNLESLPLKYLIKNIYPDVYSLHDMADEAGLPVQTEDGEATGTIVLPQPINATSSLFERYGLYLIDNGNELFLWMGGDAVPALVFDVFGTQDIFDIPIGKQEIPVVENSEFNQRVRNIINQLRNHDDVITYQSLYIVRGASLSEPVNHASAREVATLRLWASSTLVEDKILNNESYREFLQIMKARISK", "test": "liposome flotation (coat recruitment to synthetic liposomes); purified Sar1 (15 µg/ml), Sec23–Sec24 (20 µg/ml), Sec13–Sec31 (30 µg/ml), 0.27 mM major/minor liposomes (0.4 µm), 0.1 mM GMP-PNP, HKM buffer pH 7.0, 30 min at 25°C; liposomes floated through sucrose; bound proteins by SDS-PAGE and SYPRO red", "settings": "both partners purified"}
{"binder": "Sec13–Sec31 complex (WT) (complex, yeast (S. cerevisiae) | S. cerevisiae, Sec13, COPII outer coat subunit, yeast; Sec31, COPII outer coat subunit, S. cerevisiae; disordered proline-rich region defined as residues 764-1,174; also called outer coat; WT Sec31; source: Sf9 cells (pFastbac), purified (HisTrap HP, TEV cleavage of the 6xHis tag on Sec31, HiTrap Q HP); not shown: His6, N-terminal, cleaved) chain 1: MVVIANAHNELIHDAVLDYYGKRLATCSSDKTIKIFEVEGETHKLIDTLTGHEGPVWRVDWAHPKFGTILASCSYDGKVLIWKEENGRWSQIAVHAVHSASVNSVQWAPHEYGPLLLVASSDGKVSVVEFKENGTTSPIIIDAHAIGVNSASWAPATIEEDGEHNGTKESRKFVTGGADNLVKIWKYNSDAQTYVLESTLEGHSDWVRDVAWSPTVLLRSYLASVSQDRTCIIWTQDNEQGPWKKTLLKEEKFPDVLWRASWSLSGNVLALSGGDNKVTLWKENLEGKWEPAGEVHQ chain 2: MVKLAEFSRTATFAWSHDKIPLLVSGTVSGTVDANFSTDSSLELWSLLAADSEKPIASLQVDSKFNDLDWSHNNKIIAGALDNGSLELYSTNEANNAINSMARFSNHSSSVKTVKFNAKQDNVLASGGNNGEIFIWDMNKCTESPSNYTPLTPGQSMSSVDEVISLAWNQSLAHVFASAGSSNFASIWDLKAKKEVIHLSYTSPNSGIKQQLSVVEWHPKNSTRVATATGSDNDPSILIWDLRNANTPLQTLNQGHQKGILSLDWCHQDEHLLLSSGRDNTVLLWNPESAEQLSQFPARGNWCFKTKFAPEAPDLFACASFDNKIEVQTLQNLTNTLDEQETETKQQESETDFWNNVSREESKEKPTVFHLQAPTWYGEPSPAAHWAFGGKLVQITPDGKGVSITNPKISGLESNTTLSEALKTKDFKPLINQRLVKVIDDVNEEDWNLLEKLSMDGTEEFLKEALAFDNDESDAQDDANNEKEDDGEEFFQQIETNFQPEGDFSLSGNIEQTISKNLVSGNIKSAVKNSLENDLLMEAMVIALDSNNERLKESVKNAYFAKYGSKSSLSRILYSISKREVDDLVENLDVSQWKFISKAIQNLYPNDIAQRNEMLIKLGDRLKENGHRQDSLTLYLAAGSLDKVASIWLSEFPDLEDKLKKDNKTIYEAHSECLTEFIERFTVFSNFINGSSTINNEQLIAKFLEFINLTTSTGNFELATEFLNSLPSDNEEVKTEKARVLIASGKSLPAQNPATATTSKAKYTNAKTNKNVPVLPTPGMPSTTSIPSMQAPFYGMTPGASANALPPKPYVPATTTSAPVHTEGKYAPPSQPSMASPFVNKTNSSTRLNSFAPPPNPYATATVPATNVSTTSIPQNTFAPIQPGMPIMGDYNAQSSSIPSQPPINAVSGQTPHLNRKANDGWNDLPLKVKEKPSRAKAVSVAPPNILSTPTPLNGIPANAASTMPPPPLSRAPSSVSMVSPPPLHKNSRVPSLVATSESPRASISNPYAPPQSSQQFPIGTISTANQTSNTAQVASSNPYAPPPQQRVATPLSGGVPPAPLPKASNPYAPTATTQPNGSSYPPTGPYTNNHTMTSPPPVFNKPPTGPPPISMKKRSNKLASIEQNPSQGATYPPTLSSSASPLQPSQPPTLASQVNTSAENVSHEIPADQQPIVDFLKEELARVTPLTPKEYSKQLKDCDKRLKILFYHLEKQDLLTQPTIDCLHDLVALMKEKKYKEAMVIHANIATNHAQEGGNWLTGVKRLIGIAEATLN", "values": [{"measurement": "binding result", "result": "binds"}]}
